Read-outs that look alike come from different tables or passages of the source.
How the values were obtained:
MAX [1] = biological target: T1, MAX (Homo sapiens, UniProt P61244 1-160); test: MITOMI
Pho4 [2] = biological target: T2, Pho4 (S. cerevisiae, UniProt P07270 1-312); test: MITOMI
T2 sequence: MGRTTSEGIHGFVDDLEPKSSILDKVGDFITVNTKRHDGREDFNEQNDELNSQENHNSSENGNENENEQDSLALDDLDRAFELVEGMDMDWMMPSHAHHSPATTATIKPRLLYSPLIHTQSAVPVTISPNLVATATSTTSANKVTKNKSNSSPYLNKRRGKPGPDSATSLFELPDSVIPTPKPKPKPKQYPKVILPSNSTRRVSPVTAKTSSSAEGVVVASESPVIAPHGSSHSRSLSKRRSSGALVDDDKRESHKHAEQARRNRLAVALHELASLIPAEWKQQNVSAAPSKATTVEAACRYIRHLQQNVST

MAX [3] = biological target: T1, MAX; test: MITOMI; remark: listed apart in the source
Pho4 [4] = biological target: T2, Pho4; test: STAMMP

T1 sequence (P61244 whole entry): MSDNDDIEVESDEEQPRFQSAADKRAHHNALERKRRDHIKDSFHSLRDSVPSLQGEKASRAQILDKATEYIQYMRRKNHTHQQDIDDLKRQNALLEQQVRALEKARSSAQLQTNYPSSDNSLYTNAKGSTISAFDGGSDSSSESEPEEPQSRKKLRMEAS

B1: ATGC/ATGC 60bp (dsDNA)
DNA 1: CGCATGCATGCATGCATGCATGCATGCATGCATGCATGCATGCATGCATGCATGCATGCATGCGTCACGTGACGCATGCATGCATGCATGCATGCATGCATGCATGCATGCATGCATGCATGCATGCATGCATCGTCCGGCGGTATGAC
DNA 2: GTCATACCGCCGGACGATGCATGCATGCATGCATGCATGCATGCATGCATGCATGCATGCATGCATGCATGCATGCGTCACGTGACGCATGCATGCATGCATGCATGCATGCATGCATGCATGCATGCATGCATGCATGCATGCATGCG
Question: Does B1 bind (MAX [1])?
Answer: binds

Question: Does B1 bind (Pho4 [2])?
Answer: binds

B2: GT/AC 15bp (dsDNA)
DNA 1: CGCCCCAGCACTGCCAAGCCGACGTTAAAACGGGTTGCTTCATCAATCTGTGTGTGTGTGTGTGTCACGTGACACACACACACACACATATCGGCACTTGCGCTTGAGTGCATCGAATAGTTCGGTTTATGAGCGTCCGGCGGTATGAC
DNA 2: GTCATACCGCCGGACGCTCATAAACCGAACTATTCGATGCACTCAAGCGCAAGTGCCGATATGTGTGTGTGTGTGTGTCACGTGACACACACACACACACAGATTGATGAAGCAACCCGTTTTAACGTCGGCTTGGCAGTGCTGGGGCG
Question: Does B2 bind (MAX [3])?
Answer: binds

B3: Motif + random 1 (dsDNA)
DNA 1: CGCACAGTCACTTAACGTCACGTGACCGGGGTATTTCAGGTCCGGCGGTATGAC
DNA 2: GTCATACCGCCGGACCTGAAATACCCCGGTCACGTGACGTTAAGTGACTGTGCG
Question: Does B3 bind (Pho4 [4])?
Answer: binds
